The values that follow come from US12084521B2, “TLR9 inhibitors to suppress inflammatory response to pathogens” (University Of Maryland, Baltimore, priority 2018, dated 2024).

Assay [1] concerns the target recombinant TIRAP (Homo sapiens, UniProt P58753). As to conditions: cited from earlier work.
Assay [2] has as its system TLR9 signaling. Description: Plasma cytokines after i.p. ODN 1668 in mice. In kind it is in vivo, C57BL/6J mice. The settings on record: peptide 200 nmol/mouse i.p.; ODN 1668 7.86 nmol/mouse. How it is done: (§1) Systemic cytokine levels were measured in plasma samples obtained 1, 3, and 5 hours after intraperitoneal (i.p.) administration of 7.86 nmol (50 μg) of ODN 1668 or 67 nmol of Pam3C per mouse, using ELISA kits from Biolegend™ Inc. CPDP were dissolved in PBS and administered i.p. at the dose of 200 nmol per mouse 1 hour before administration of a TLR agonist. For survival experiments, mice were sensitized to TLR9 agonists by i.p. injection of 20 mg of D-Gal 30 minutes before administration of peptides or PBS. ODN 1668 was used at the doses of 3.93 or 7.86 nmol/mouse (25 or 50 μg/mouse) 1.5 hours after D-Gal. Animal survival was monitored for 50 hours. All agents were administered i.p. in 500 μL volume of PBS. Animals had free access to food and water during the observation period. All animal experiments were conducted in accordance with the national guidelines for the care and use of laboratory animals under a protocol that was approved by the UMB IACUC.
To test the in vivo efficacy and specificity of 9R34-ΔN, C57BL/6J mice were mock-treated or treated i.p. with a single dose of inhibitory or control peptide (200 nmol/mouse) and challenged with TLR9 agonist ODN 1668 (7.86 nmol/mouse) or TLR2/1 agonist Pam3C (67 nmol/mouse) 1 hour later. Plasma concentrations of TNFα and IL-12-p40 were measured 1, 3, and 5 hours after the challenge. Both TLR agonists increased concentrations of TNFα and IL-12-p40 in 1 hour samples from below the limit of detection to about 1.2 and about 6 ng/mL in the case of ODN 1668, and to 0.12 ng/mL and 1 ng/mL after treatment with Pam3C.
Plasma TNFα and IL-12-p40 levels following intraperitioneal administration of ODN 1668 to C57Bl/6J mice in peptide-pretreated and control mice are shown in FIG. 14A and FIG. 14B. Data shown in these figures represent the means±SEM obtained in at least three independent experiments. The statistical significance of changes in cytokine concentrations was determined by a two-way ANOVA test; *p<0.001.

Assay [3] concerns TLR2/1 signaling. Description: Plasma cytokines after i.p. Pam3C in mice. It is filed as in vivo, C57BL/6J mice. The settings on record: peptide 200 nmol/mouse i.p.; Pam3C 67 nmol/mouse. How it is done: as §1, with “Animals had free access to food and water during the observation period. All animal experiments were conducted in accordance with the national guidelines for the care and use of laboratory animals under a protocol that was approved by the UMB IACUC.” left out
To test the in vivo efficacy and specificity of 9R34-ΔN, C57BL/6J mice were mock-treated or treated i.p. with a single dose of inhibitory or control peptide (200 nmol/mouse) and challenged with TLR9 agonist ODN 1668 (7.86 nmol/mouse) or TLR2/1 agonist Pam3C (67 nmol/mouse) 1 hour later. Plasma concentrations of TNFα and IL-12-p40 were measured 1, 3, and 5 hours after the challenge. […]
Plasma TNFα and IL-12-p40 levels following intraperitioneal administration of ODN 1668 to C57Bl/6J mice in peptide-pretreated and control mice are shown in FIG. 14A and FIG. 14B. […] The statistical significance of changes in cytokine concentrations was determined by a two-way ANOVA test; *p<0.001.

Assay [4] concerns the target T1, TIRAP TIR (Homo sapiens, UniProt P58753).
T1 construct: fused with TLR9 TIR or TIRAP TIR; expressed in transfected cells; host or cells: HeLa
Kind of assay: FLIM/FRET binding of Cy3-labeled peptides to Cer-fused TIR in HeLa cells. The settings on record: HeLa cells, Cy3-peptide 2.5-40 μM, 1 hour. As for the experimental part: Three million HeLa cells were transfected with 10 μg of MyD88-Cer, TIRAP-Cer, TRAM-Cer, TLR2-Cer, TLR4 TIR-Cer, or TLR9 TIR-Cer expression vectors using a Lipofectamine™ 3000 kit from Invitrogen™ per manufacturer recommendations. Twenty four hours later, the transfected cells were trypsinized and reseeded into a 50-well gasket (Grace Bio-Labs™) mounted on a microscope slide at the density 8000 cells/well. The next day, cells were treated with Cy3-9R34-ΔN or Cy3-9R11 for 1 hour and fixed on the slides with a 4% paraformaldehyde solution.
Fluorescence lifetime images were acquired using the Alba V FLIM™ system (ISS™ Inc.). The excitation was from the laser diode 443 nm coupled with scanning module (ISS™) through multiband dichroic filter 443/532/635 nm (Semrock™) to Olympus™ IX71S microscope with objective 20×0.45 NA (UPlan™ Olympus™). Emission was observed through bandpass filter […] (Chroma Technology™) and detected by a photomultiplier H7422-40 (Hamamatsu™). Measurements were performed using frequency domain (FD) and time domain (TD) modalities of the FLIM system. FD FLIM data were acquired using ISS™ A320 FastFLIM™ electronics with n harmonics of 20 MHz laser repetition frequency (n=1, 2, 3, 4, 5, 6). FastFLIM™ was calibrated using fluorescein in buffer pH 8.0 as a standard with a single lifetime of 4.0 ns. TD FLIM images were acquired using time-correlated single photon counting TCSPC™ Model SPC-830 (Becker & Hick™).
Images (256×256 pixels) were acquired with resolution varied in the range ˜0.4-0.7 μm/pixel, using scan speed 1 ms/pixel. To avoid pixel intensity saturation in bright cells and to improve the signal from dim cells, two to five overlapping scans were used for acquisition of FLIM images. Image sizes varied from 100×100 to 180×180 μm to accommodate multiple cells. FLIM data were analyzed with VistaVision™ Suite software (Vista™ v.212 from ISST). Fluorescence lifetime was determined using single- and bi-exponential intensity decay models. Average lifetime images were generated based on pixel-by-pixel analysis using the combined signal of two neighboring pixels in all directions (bin 2=25 pixels). The binning was used to improve the signal for analysis. The average lifetimes were calculated from fitted parameters, decay times τi and amplitudes αi, τa=Σαiτi. The bi-exponential fitting procedure was performed with one lifetime component fixed at 3.1 nsec, which was found common for most images. To calculate the effective FRET efficiency (E), average lifetimes of the donor only images (τD) and donor-acceptor images (τDA) were used, E=1−τDA/τD.
To identify potential binding partners of inhibitory peptides a FRET approach coupled with Fluorescence Lifetime Imaging Microscopy (FLIM) was used. HeLa cells were transiently transfected with an expression vector that encodes a TIR domain fused with Cerulean fluorescent protein (Cer). Cells were treated with various concentrations of a Cy3-labeled inhibitory peptide 48 hours after transfection. Cy3 is a suitable FRET acceptor for Cer fluorescence. A direct molecular interaction of a Cy3-labeled peptide with Cer-fused TIR domain should quench Cer fluorescence, leading to a decreased fluorescence lifetime.
TLR9, MyD88, and TIRAP were selected as potential primary binding partners for Cy3-9R34-ΔN and Cy3-9R11. Cer-fused TLR2 and TLR4 TIR domains, and Cer not fused to a TIR, were used as controls. […] Therefore, the TIRAP-Cer with Cy3-2R9 was used as a positive binding control. Binding of Cy3-labeled CPDPs to Cerulean- (Cer-) labeled TIR domains was tested as follows. Fluorescence Lifetime IMages (FLIM) were made of HeLa cells expressing Cer not fused with a TIR domain (upper row) or fused with TLR9 TIR or TIRAP TIR (middle and bottom rows) and treated with a Cy3-labeled decoy peptide for 1 hour.
A progressive shift of average fluorescence lifetime towards lower values observed with increasing peptide concentrations indicates the binding between donor and acceptor moieties. […]

No end group written: not given here.

T1 sequence (P58753 84-213 limits assumed): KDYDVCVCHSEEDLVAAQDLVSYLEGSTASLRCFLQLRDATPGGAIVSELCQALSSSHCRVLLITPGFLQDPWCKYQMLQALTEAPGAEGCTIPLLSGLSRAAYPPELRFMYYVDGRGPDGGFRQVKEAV
Chain of recombinant TIRAP (P58753 whole entry): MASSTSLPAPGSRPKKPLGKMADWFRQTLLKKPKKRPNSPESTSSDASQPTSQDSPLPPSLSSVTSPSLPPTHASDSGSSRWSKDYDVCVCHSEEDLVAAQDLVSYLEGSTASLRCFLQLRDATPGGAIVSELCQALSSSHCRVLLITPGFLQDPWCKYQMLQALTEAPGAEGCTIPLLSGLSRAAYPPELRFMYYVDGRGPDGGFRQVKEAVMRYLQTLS

“PQRFCKLRKIMNT (also: Cy3 label, position not given here) [Peptide 2R9, reference compound]”: in assay [1], the “affinity for recombinant TIRAP” value was “nanomolar”. Besides, the “ODN 1668-induced plasma cytokine levels (TNFα, IL-12-p40)” value in assay [2] is on record as “suppressed cytokine induction”. The “Pam3C-induced plasma cytokine levels (TNFα, IL-12-p40)” value in assay [3] is “suppressed cytokine induction”. For the same sequence, the “quenching of TIRAP-Cer fluorescence” value in assay [4] is reported as “slightly higher than for the TLR9-9R34-ΔN pair”.
